From patent US11160869B2 (priority 2019, dated 2021)

What was measured:
[1] = Purification with and without sulfitolysis: SEC-HPLC forms, yield and dimer recovery after Capto Q; conditions: for Dimer Purity after Capto Q Chromatography: Capto Q load 1680 mg; for Dimer Purity: after Capto Q chromatography
Method: Refolding in both processes was carried out at 4° C. The refolding solution used in both processes contained 1 mM reduced glutathione, 0.5 mM oxidized glutathione, 1M Arginine-HCl, 250 mM sucrose, 100 mM Tris pH 8.5 at 4° C., and 2 mM EDTA.

[2] = tested on: cells of the lamina propria (LAMP1, CD11c, CD19, CD34, CD3); assay: Cell targeting in the lamina propria after intraluminal injection, immunofluorescence; assay type: in vivo, Wistar rats
Method: Rats were anesthetized using inhaled isoflurane and euthanized by inhaled CO2.
Experiments were initiated by making an approximately 4 cm abdominal incision to access the mid-jejunum region of the small intestine. After performing the incision, 50 μl of a prepared solution of the IL-10 delivery construct (typically at about 1 mg/mL) was injected into the intestinal lumen of an area devoid of foodstuffs through a 27-gauge needle using a 1 mL syringe. The mesentery adjacent to the site of injection was labeled with a marker and the intestine was returned to the abdominal cavity, with the incision being closed with clamps.
At specific times, the injected intestine was retrieved, surgically isolated and flushed with a 4° C. isotonic PBS. Washed, excised samples were fixed (4% paraformaldehyde in PBS) overnight at 4° C. before dehydration through graded series of ethanol/water solutions and overnight incubation in chloroform.
Dehydrated tissues were immersed in wax, sectioned, and mounted on poylysine slides and processed for antigen retrieval using sodium citrate. Afterward, sections were permeabilised with 0.2% Triton-X100 in PBS prior to thrice washing in PBS and blocking with 2% BSA+2% serum of the animal the secondary antibodies have been raised. Primary antibodies were diluted in 1% BSA, 0.1% Triton-X100 in PBS and incubated overnight at 4° C. in humidified air. Fluorescent secondary antibodies were diluted in 1% BSA, 0.1% Triton-X100 in PBS and incubated for 2 h at RT prior to processing for confocal microscopy. On occasion, an approximately 1 cm section of intestine at the injection site was collected for biochemical studies.
Proteins for specific cell types were examined by immuno-fluorescence using confocal microscopy. The IL-10 delivery construct components (the carrier, also referred to herein as “cholix,” and IL-10) were followed separately with either a polyclonal antibody (pAb) or monoclonal antibody (mAb) to IL-10 or a pAb or mAb to the carrier domain to allow co-localization with pAb or mAbs available (TABLE 46).

[3] = Intraluminal injection in T-cell transfer model: rhIL-10 ELISA in intestinal tissue and serum; assay type: in vivo, BALB/c and SCID mice
Method: This study was conducted to examine the potential for the carrier protein to transport rhIL-10 from the intestinal lumen into the submucosal region in inflamed intestinal tissue. The T lymphocyte (T cell) transfer model was used as it is a well-established model of induced chronic colitis in mice and presents many of the essential immunological hallmarks observed in IBD patients. Nine BALB/c mice and twelve SCID mice, including nine with the colitis-like model of inflammation, were dosed with 20 μl of test article via intraluminal injection into the distal ileum and the proximal, middle and distal colon. […] In each group, two mice were terminated 10 minutes after intraluminal injections, and one was terminated 40 minutes after intraluminal injections. Intestinal tissue and serum were collected. Collected tissue was fixed, embedded, sectioned and H&E stained for histological assessment of inflammatory status. ELISA analysis to measure rhIL 10 was performed on lysates prepared from intestinal tissue and serum (FIGS. 106A-106D).

plasma cytokines = assay: MSD V-plex Proinflammatory Panel 1 plasma cytokines, oxazolone colitis (Example 14); assay type: in vivo, mice; conditions: 8.45 mg/kg
Source text: (§1) Plasma cytokines were quantified using the V-plex Proinflammatory Panel 1 Mouse Kit. Plasma IL-1Ra was quantitated by sandwich immunoassay using an antibody pair from the Mouse IL-1Ra/IL-1F3 DuoSet ELISA (R&D Systems #DY480), Streptavidin SULFO-TAG Labeled (MSD #R32AD-1), Multi-Array 96 Plate Pack, SECTOR Plate MSD #L15XA-3 and Read Buffer T (4×) (MSD #R92TC-2). Samples were read on the QuickPlex SQ 120 plate reader (Meso Scale Discovery, Rockville, Md.).

[4] = Plasma rhIL-10, IL-10 delivery construct and IL-1Ra immunoassays, DSS study; assay type: in vivo, mice; conditions: 0.3 and 3 mg/kg, 4 hours after final dose
Source text: as §1
The Human IL-10 Base kit (MSD #K151AOA-4) was used to measure rhIL-10 in plasma. […] The MSD Small Spot IL-10 plate was incubated with Diluent 41 (25 μL/well) for 30 minutes at room temperature with shaking before use. Controls and samples were diluted 2-fold with pooled CD-1 mouse plasma (BioIVT, custom order), and the calibration standards were also prepared in mouse plasma. Standards, diluted samples and controls were added (25 μL/well), and the plate was incubated for 2 hours at room temperature with shaking. The plate was washed 3 times with phosphate buffered saline with Tween-20 (PBST), and 25 μL/well 1×SULFO TAG Anti-human IL-10 Antibody (prepared in Diluent 45) was added to the plate. The plate was incubated for 1 hour at room temperature with shaking. Following a wash step, 150 μL/well of 2×MSD Read buffer was added, and the plate was read in the MSD Sector Imager 600 plate reader.

[5] = 37 C, 5 h, 0.3 mg/mL
[6] = Liquid formulation screens: freeze/thaw, shear stress, short-term stability; assay type: physicochemical; conditions: 20 mg/mL, formulations of TABLE 11
Method: Formulation development to establish the lyophilization buffer was performed by initially screening the freeze-thaw and shear-induced liquid stability of the target construct following dialysis into combinations of several components outlined below:
Using these two formulations, in order to ensure that the UF/DF step would function as intended and that freezing at the beginning of the lyophilization process would be acceptable, a final liquid formulation freeze/thaw screen and short-term stability study was conducted at higher protein concentrations as outlined in TABLE 11 below.
This formulation was recommended to proceed as the buffer to be used in the UF/DF formulation step prior to lyophilization.

[7] = No Sulfitolysis of SIB (2x UF/DF at 4° C.), SEC-HPLC before AEX
[8] = No Sulfitolysis of SIB (2x UF/DF for 66 h RT), SEC-HPLC before AEX
[9] = No Sulfitolysis of SIB (97 mL Capto Q)
[10] = Sulfitolysis of SIB (97 mL Capto Q)
[11] = Sulfitolysis of SIB (TFF-2 for 20 h at RT), SEC-HPLC after UF/DF, before AEX

B1: IL-10 delivery construct: recombinant homodimeric fusion protein: N-terminal methionine, cholix386 domain, polyGlySer spacer, recombinant human IL-10 (protein)
chain: MVEEALNIFDECRSPCSLTPEPGKPIQSKLSIPSDVVLDEGVLYYSMTINDEQNDIKDEDKGESIITIGEFATVRATRHYVNQDAPFGVIHLDITTENGTKTYSYNRKEGEFAINWLVPIGEDSPASIKISVDELDQQRNIIEVPKLYSIDLDNQTLEQWKTQGNVSFSVTRPEHNIAISWPSVSYKAAQKEGSRHKRWAHWHTGLALCWLVPMDAIYNYITQQNCTLGDNWFGGSYETVAGTPKVITVKQGIEQKPVEQRIHFSKGNAMSALAAHRVCGVPLETLARSRKPRDLTDDLSCAYQAQNIVSLFVATRILFSHLDSVFTLNLDEQEPEVAERLSDLRRINENNPGMVTQVLTVARQIYNDYVTHHPGLTPEQTSAGAQAGGGGSGGGGSGGGGSPGQGTQSENSCTHFPGNLPNMLRDLRDAFSRVKTFFQMKDQLDNLLLKESLLEDFKGYLGCQALSEMIQFYLEEVMPQAENQDPDIKAHVNSLGENLKTLRLRLRRCHRFLPCENKSKAVEQVKNAFNKLQEKGIYKAMSEFDIFINYIEAYMTMKIRN
modifications: homodimer
[1]; [7]
  Aggregate %: 36%
  Monomer %: 22%
[1]; [8]
  Aggregate %: 57%
  Monomer %: 11%
[1]; [9]
  Dimer Purity after Capto Q Chromatography: 84%
  Dimer Purity: 84%
[1]; [10]
  Dimer Purity after Capto Q Chromatography: 74%
  Dimer Purity: 74%
[1]; [11]
  Aggregate %: 68%
  Monomer %: 8%
[1]; Sulfitolysis of SIB (average of 3)
  Dimer Purity: 82-83%
[2]; 1-minute pulse, intraluminal injection
  time by which an extensive amount reached the lamina propria: ≤ 15 min
[2]; 15-minute time course
  co-localization with LAMP1-positive lysosomes in enterocytes: little or no co-localization
[2]; lamina propria
  co-localization with CD3 antigen (T lymphocytes): striking co-localizations
  co-localization with CD19-positive cells (B-lymphocytes): failed to co-localize
  co-localization with CD34-positive cells (endothelia): failed to co-localize
[2]; rat jejunum lamina propria
  co-localization with CD11c (dendritic cells): did not co-localize with CD11c antigen to any striking extent
[3]; 159 pmoles
  rhIL-10 levels in inflamed tissue relative to rhIL-10 alone: approximately 10 fold higher
  uptake in normal intestinal tissues compared to rhIL-10 alone: two- to five-fold higher
[3]; 159 pmoles, 10-minute exposure
  rhIL-10 in intestinal tissue compared to rhIL-10 alone: substantially higher
[3]; intraluminal injection
  rhIL-10 in serum of healthy animals: moderately high rhIL-10 detected
  rhIL-10 in serum of inflamed animals: minimal amounts of rhIL-10 were detected
Plasma cytokines
  suppression of induction of IL-4 (trend): 62%
  suppression of induction of IL-6 (trend): 61%
  suppression of induction of IL-12p70 (trend): 65%
  suppression of induction of KC/GRO (trend): 51%
Plasma cytokines; p<0.05
  plasma expression of IL-10 and IL-2 relative to Vehicle: significantly reduced
[4]
  plasma rhIL-10 relative to background of Vehicle treatment: 10-300 fold higher
[5]
  solution stability after reconstitution in PBS: significant degradation
[6]
  aggregation during freeze/thaw or at 1 week at 4 C: did not show any significant increases in aggregation
